Laboratory results taken from publication doi:10.1101/2022.02.24.481826v2.

Tests used:
[1] = system: O=P(O)(O)OP(=O)(O)OP(=O)(O)OC[C@H]1O[C@@H](n2cnc3c(O)ncnc32)[C@H](O)[C@@H]1O; test: EnzChek pyrophosphate release assay, Michaelis-Menten fit; format: biochemical, Arabidopsis thaliana; conditions: ITP to IMP
[2] = system: O=c1[nH]cnc2c1ncn2[C@H]1C[C@H](O)[C@@H](COP(=O)(O)OP(=O)(O)OP(=O)(O)O)O1; test: as above; format: biochemical, Arabidopsis thaliana; conditions: dITP to dIMP

**Q.** Which Km [1] does the source give for ITPA (Arabidopsis thaliana) here?
**A.** The Km was 7.1 ± 1.2 µM.

**Q.** And the kcat [1]?
**A.** The kcat was 1.9 ± 0.25 s⁻¹.

**Q.** And the Km [2]?
**A.** The Km was 1.7 ± 0.3 µM.

**Q.** What about the kcat [2] of the same substance?
**A.** Its kcat is 1.5 ± 0.17 s⁻¹.
